# Data as given in article PMC7615647, “Visualization of direct and diffusion-assisted RAD51 nucleation by full-length human BRCA2 protein” (Molecular cell, 2023).
# B1: RAD51 C319S labelled with Alexa Fluor 647 C2 maleimide (natural protein, human, UniProt Q06609 1-339, looked up)
# chain: MAMQMQLEANADTSVEEESFGPQPISRLEQCGINANDVKKLEEAGFHTVEAVAYAPKKELINIKGISEAKADKILAEAAKLVPMGFTTATEFHQRRSEIIQITTGSKELDKLLQGGIETGSITEMFGEFRTGKTQICHTLAVTCQLPIDRGGGEGKAMYIDTEGTFRPERLLAVAERYGLSGSDVLDNVAYARAFNTDHQTQLLYQASAMMVESRYALLIVDSATALYRTDYSGRGELSARQMHLARFLRMLLRLADEFGVAVVITNQVVAQVDGAAMFAADPKKPIGGNIIAHASTTRLYLRKGRGETRICKIYDSPSLPEAEAMFAINADGVGDAKD
# modifications: Alexa Fluor 647 C2 maleimide (labelled residue not stated; protein to dye ratio 0.9-1.0)
# notes: RAD51 recombinase, human, C319S variant; also called RAD51(A647); RAD-51(A647); source: E. coli BLR(DE3)pLysS (pET11c-RAD51 C319S), purified (ammonium sulphate, Q Sepharose, Heparin, Mono Q), then labelled
# Tests used:
# [1] = molecular target: BRCA2-eGFP;RAD51(A647) (Homo sapiens;Homo sapiens) (UniProt P51587); test: single-molecule optical tweezers/confocal; conditions: EMSA: 4 nM Cy5-DNA, 20 mM HEPES pH 7.5, 1 mM MgCl2, 1 mM TCEP, 100 mM KCl, 24 C, 5 min, single-molecule (Fig 1): 100 mM NaCl, 2 mM MgCl2, 1 mM CaCl2, 2 mM ATP …
# Chain of BRCA2-eGFP;RAD51(A647) (Homo sapiens;Homo sapiens) (P51587 whole entry, looked up): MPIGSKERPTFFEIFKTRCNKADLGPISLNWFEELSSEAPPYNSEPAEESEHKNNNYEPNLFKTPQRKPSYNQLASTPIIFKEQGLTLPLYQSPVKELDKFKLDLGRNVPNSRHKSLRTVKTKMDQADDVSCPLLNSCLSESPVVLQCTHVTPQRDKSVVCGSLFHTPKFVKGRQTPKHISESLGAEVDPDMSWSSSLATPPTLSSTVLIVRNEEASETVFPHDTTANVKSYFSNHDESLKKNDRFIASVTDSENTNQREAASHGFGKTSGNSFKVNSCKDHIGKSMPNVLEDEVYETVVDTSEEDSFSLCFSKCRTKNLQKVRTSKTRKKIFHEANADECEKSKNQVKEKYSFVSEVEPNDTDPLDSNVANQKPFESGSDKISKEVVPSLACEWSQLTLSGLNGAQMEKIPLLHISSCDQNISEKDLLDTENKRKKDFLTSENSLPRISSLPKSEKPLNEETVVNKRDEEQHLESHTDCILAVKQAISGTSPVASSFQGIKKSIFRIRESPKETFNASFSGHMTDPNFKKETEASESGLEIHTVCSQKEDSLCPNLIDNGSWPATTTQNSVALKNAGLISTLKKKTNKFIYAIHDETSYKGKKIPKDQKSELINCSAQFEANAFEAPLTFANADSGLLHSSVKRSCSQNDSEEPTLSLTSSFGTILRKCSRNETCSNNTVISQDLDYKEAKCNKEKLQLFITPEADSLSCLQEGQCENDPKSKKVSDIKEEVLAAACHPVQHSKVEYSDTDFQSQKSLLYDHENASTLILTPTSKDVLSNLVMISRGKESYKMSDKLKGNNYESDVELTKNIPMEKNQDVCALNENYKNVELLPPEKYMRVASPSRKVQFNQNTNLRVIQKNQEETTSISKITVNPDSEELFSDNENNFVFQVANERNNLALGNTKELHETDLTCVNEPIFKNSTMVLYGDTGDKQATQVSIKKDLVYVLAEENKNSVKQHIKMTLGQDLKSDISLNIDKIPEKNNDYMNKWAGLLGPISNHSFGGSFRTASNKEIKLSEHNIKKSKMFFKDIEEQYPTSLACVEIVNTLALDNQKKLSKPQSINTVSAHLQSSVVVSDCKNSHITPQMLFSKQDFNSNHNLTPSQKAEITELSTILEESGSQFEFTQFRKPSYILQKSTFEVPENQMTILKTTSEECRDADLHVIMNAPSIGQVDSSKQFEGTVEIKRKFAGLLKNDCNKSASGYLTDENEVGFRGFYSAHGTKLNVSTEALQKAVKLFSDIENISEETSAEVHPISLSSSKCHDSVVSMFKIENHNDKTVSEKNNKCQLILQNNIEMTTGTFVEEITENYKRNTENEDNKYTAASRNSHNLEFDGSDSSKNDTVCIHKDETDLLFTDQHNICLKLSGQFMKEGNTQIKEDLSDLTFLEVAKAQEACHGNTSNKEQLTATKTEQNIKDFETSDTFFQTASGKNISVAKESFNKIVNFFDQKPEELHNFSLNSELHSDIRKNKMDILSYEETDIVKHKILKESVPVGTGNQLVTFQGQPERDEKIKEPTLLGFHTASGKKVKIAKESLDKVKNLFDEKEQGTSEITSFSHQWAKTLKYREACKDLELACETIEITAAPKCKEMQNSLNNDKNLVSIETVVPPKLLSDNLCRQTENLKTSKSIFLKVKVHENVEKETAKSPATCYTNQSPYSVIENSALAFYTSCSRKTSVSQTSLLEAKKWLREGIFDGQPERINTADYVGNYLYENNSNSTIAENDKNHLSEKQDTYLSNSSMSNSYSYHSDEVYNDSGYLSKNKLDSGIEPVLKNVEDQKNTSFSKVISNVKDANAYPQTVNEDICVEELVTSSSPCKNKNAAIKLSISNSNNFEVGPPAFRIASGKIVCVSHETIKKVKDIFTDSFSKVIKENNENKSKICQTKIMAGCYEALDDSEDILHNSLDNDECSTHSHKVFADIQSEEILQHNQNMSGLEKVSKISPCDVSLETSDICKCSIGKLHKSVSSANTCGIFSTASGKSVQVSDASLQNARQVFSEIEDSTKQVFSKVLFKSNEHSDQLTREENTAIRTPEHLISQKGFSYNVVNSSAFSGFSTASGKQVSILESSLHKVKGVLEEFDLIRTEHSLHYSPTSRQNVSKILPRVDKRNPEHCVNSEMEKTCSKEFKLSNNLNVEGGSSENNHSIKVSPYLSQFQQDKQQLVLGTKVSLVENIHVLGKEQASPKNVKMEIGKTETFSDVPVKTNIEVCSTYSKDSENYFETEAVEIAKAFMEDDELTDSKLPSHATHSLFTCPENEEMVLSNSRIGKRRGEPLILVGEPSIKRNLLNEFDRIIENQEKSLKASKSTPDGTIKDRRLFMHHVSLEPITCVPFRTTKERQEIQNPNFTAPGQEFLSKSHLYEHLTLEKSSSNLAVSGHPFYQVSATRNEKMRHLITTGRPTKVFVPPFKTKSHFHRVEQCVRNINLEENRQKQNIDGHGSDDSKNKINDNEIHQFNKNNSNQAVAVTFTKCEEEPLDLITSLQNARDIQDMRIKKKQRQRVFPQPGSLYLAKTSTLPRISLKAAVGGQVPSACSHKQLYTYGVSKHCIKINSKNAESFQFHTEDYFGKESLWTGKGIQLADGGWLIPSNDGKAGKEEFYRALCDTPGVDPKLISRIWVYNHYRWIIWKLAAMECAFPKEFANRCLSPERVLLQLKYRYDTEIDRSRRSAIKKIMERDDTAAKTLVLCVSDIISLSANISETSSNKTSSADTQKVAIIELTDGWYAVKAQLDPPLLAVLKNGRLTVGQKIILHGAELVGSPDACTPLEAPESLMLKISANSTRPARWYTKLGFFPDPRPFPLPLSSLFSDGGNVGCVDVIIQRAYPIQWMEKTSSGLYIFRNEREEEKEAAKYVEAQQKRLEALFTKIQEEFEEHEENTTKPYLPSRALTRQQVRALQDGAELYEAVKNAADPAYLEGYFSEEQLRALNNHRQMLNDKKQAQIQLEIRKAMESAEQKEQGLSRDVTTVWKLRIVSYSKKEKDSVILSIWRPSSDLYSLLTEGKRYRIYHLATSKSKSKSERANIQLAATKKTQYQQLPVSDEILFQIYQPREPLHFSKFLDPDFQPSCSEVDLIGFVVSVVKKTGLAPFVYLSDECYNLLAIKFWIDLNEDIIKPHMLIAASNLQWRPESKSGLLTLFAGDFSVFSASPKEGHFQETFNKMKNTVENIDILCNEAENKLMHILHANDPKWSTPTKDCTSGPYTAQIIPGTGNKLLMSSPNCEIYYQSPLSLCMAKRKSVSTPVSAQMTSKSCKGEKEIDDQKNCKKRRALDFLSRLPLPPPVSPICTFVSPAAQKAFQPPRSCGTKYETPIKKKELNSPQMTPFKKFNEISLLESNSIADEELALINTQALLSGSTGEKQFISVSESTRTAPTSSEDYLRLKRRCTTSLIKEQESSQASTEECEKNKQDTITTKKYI
# [2] = system: RAD51(A647) (Homo sapiens); test: single-molecule optical tweezers/confocal; conditions: biotinylated hairpin end caps, EMSA: 4 nM Cy5-DNA, 20 mM HEPES pH 7.5, 1 mM MgCl2, 1 mM TCEP, 100 mM KCl, 24 C, 5 min, single-molecule (Fig 1): 100 mM NaCl, 2 mM MgCl2, 1 mM CaCl2, 2 mM ATP …
# [3] = molecular target: B1; test: single-molecule confocal fluorescence imaging with dual optical trapping (C-trap); BRCA2-eGFP (full length or truncation) and 20 nM RAD51(A647) moving together on lambda dsDNA held at 10 pN; 50 mM Tris-HCl pH 7.5, 50 mM NaCl or as indicated (25-150 mM), 2 mM MgCl2, 2 mM ATP, 0.2 mg/ml BSA; conditions: both partners purified
# [4] = molecular target: T1, BRCA2-N (residues 1-2142)-eGFP (human, UniProt P51587 1-2142); test: as above; conditions: both partners purified
# T1 construct: BRCA2, human, residues 1-2142 (N-DBD and BRC repeats 1-8; lacks C-DBD, TR2 and exC-DBR); also called N-DBD-BRC1-8 truncated protein; source: High Five insect cells, baculovirus (pFBDM-BRCA2-N, MultiBac), purified (StrepTrap, Heparin); not shown: eGFP, C-terminal, kept
# [5] = molecular target: T2, BRCA2-C2 (residues 966-3418)-eGFP (human, UniProt P51587 966-3418); test: as above; conditions: both partners purified
# T2 construct: BRCA2, human, residues 966-3418 (BRC repeats 1-8, C-DBD, TR2, full exC-DBR; lacks N-DBD); source: High Five insect cells, baculovirus (pFBDM-BRCA2-C2, MultiBac), purified (StrepTrap, Heparin); not shown: eGFP, C-terminal, kept
# [6] = molecular target: T3, full-length human BRCA2-eGFP (human, UniProt P51587 1-3418); test: single-molecule confocal fluorescence imaging with dual optical trapping (C-trap); 5 nM BRCA2-eGFP and 25 nM RAD51(A647) together in solution; order of their arrival on gapped lambda DNA held between beads; 50 mM Tris-HCl pH 7.5, 100 mM NaCl, 2 mM MgCl2, 1 mM CaCl2, 2 mM ATP, 0.2 mg/ml BSA; with or without 1.25 nM RPA; conditions: both partners purified
# T3 construct: breast cancer susceptibility protein 2 (BRCA2), human, full length, 3,418 amino acids; Sf9 codon-optimised gene; Order on the chain: BRCA2, (alanine)8 linker, monomeric eGFP A207K (so in the source), Flag3; Eluted from FLAG resin with Flag3 peptide; no tag cleavage is described; also called BRCA2 fl; fl BRCA2; source: Sf9 insect cells, baculovirus (pFB-BRCA2-eGFP), purified (FLAG M2 agarose, SP …)
# [7] = molecular target: BRCA2-eGFP (Homo sapiens, UniProt P51587 1-3418); test: EMSA; retains high ssDNA affinity; EMSA: 4 nM Cy5-DNA, 20 mM HEPES pH 7.5, 1 mM MgCl2, 1 mM TCEP, 100 mM KCl, 24 C, 5 min; single-molecule (Fig 1): 100 mM NaCl, 2 mM MgCl2, 1 mM CaCl2, 2 mM ATP; conditions: protein: recombinant; tags: C-terminal Ala8 linker, eGFP(A207K), Flag3; label: 5'-Cy5 on strand 1; 42 bp duplex, 3' overhang on strand 1
molecule,measurement,setting,value
lambda dsDNA (including dsDNA arms of gDNA),binding signal (um2 s-1 (1D diffusion coefficient)),"[1]; sliding on dsDNA, biotinylated ends",0.04
"gapped lambda DNA (gDNA), ssDNA gap",binding signal (fold nucleation rate vs RAD51 alone),"[1]; 5 nM BRCA2-eGFP, 25 nM RAD51, 2 mM ATP, no RPA, biotinylated hairpin end caps",2.7
same,binding signal (s (RAD51 cluster dwell time)),"[1]; with BRCA2-eGFP, biotinylated hairpin end caps",102
same,binding signal (nuclei knt-1 min-1 (nucleation rate)),"[2]; 1.25 nM RPA, 2 mM ATP",0.003
same,binding signal (nuclei knt-1 min-1 (nucleation rate)),"[2]; 25 nM RAD51, 2 mM ATP, no RPA",0.277
same,binding signal (s (cluster dwell time)),[2]; no BRCA2,27.2
"BRCA2-C (residues 966-1596, 2477-3194, 3265-3330)-eGFP (domain or fragment, human, UniProt P51587 966-1596, looked up, BRCA2, human, residues 966-1596 (BRC repeats 1-4); BRCA2, human, residues 2477-3194 (C-DBD); BRCA2, human, residues 3265-3330 (TR2); No linkers between the three stretches are stated; source: High Five insect cells, baculovirus (pFBDM-BRCA2-C, MultiBac), purified (StrepTrap, Heparin); not shown: eGFP, C-terminal, kept) TLGQDLKSDISLNIDKIPEKNNDYMNKWAGLLGPISNHSFGGSFRTASNKEIKLSEHNIKKSKMFFKDIEEQYPTSLACVEIVNTLALDNQKKLSKPQSINTVSAHLQSSVVVSDCKNSHITPQMLFSKQDFNSNHNLTPSQKAEITELSTILEESGSQFEFTQFRKPSYILQKSTFEVPENQMTILKTTSEECRDADLHVIMNAPSIGQVDSSKQFEGTVEIKRKFAGLLKNDCNKSASGYLTDENEVGFRGFYSAHGTKLNVSTEALQKAVKLFSDIENISEETSAEVHPISLSSSKCHDSVVSMFKIENHNDKTVSEKNNKCQLILQNNIEMTTGTFVEEITENYKRNTENEDNKYTAASRNSHNLEFDGSDSSKNDTVCIHKDETDLLFTDQHNICLKLSGQFMKEGNTQIKEDLSDLTFLEVAKAQEACHGNTSNKEQLTATKTEQNIKDFETSDTFFQTASGKNISVAKESFNKIVNFFDQKPEELHNFSLNSELHSDIRKNKMDILSYEETDIVKHKILKESVPVGTGNQLVTFQGQPERDEKIKEPTLLGFHTASGKKVKIAKESLDKVKNLFDEKEQGTSEITSFSHQWAKTLKYREACKDLELACETIEITAAPKCKEMQNPLDLITSLQNARDIQDMRIKKKQRQRVFPQPGSLYLAKTSTLPRISLKAAVGGQVPSACSHKQLYTYGVSKHCIKINSKNAESFQFHTEDYFGKESLWTGKGIQLADGGWLIPSNDGKAGKEEFYRALCDTPGVDPKLISRIWVYNHYRWIIWKLAAMECAFPKEFANRCLSPERVLLQLKYRYDTEIDRSRRSAIKKIMERDDTAAKTLVLCVSDIISLSANISETSSNKTSSADTQKVAIIELTDGWYAVKAQLDPPLLAVLKNGRLTVGQKIILHGAELVGSPDACTPLEAPESLMLKISANSTRPARWYTKLGFFPDPRPFPLPLSSLFSDGGNVGCVDVIIQRAYPIQWMEKTSSGLYIFRNEREEEKEAAKYVEAQQKRLEALFTKIQEEFEEHEENTTKPYLPSRALTRQQVRALQDGAELYEAVKNAADPAYLEGYFSEEQLRALNNHRQMLNDKKQAQIQLEIRKAMESAEQKEQGLSRDVTTVWKLRIVSYSKKEKDSVILSIWRPSSDLYSLLTEGKRYRIYHLATSKSKSKSERANIQLAATKKTQYQQLPVSDEILFQIYQPREPLHFSKFLDPDFQPSCSEVDLIGFVVSVVKKTGLAPFVYLSDECYNLLAIKFWIDLNEDIIKPHMLIAASNLQWRPESKSGLLTLFAGDFSVFSASPKEGHFQETFNKMKNTVENIDILCNEAENKLMHILHANDPKWSTPCKKRRALDFLSRLPLPPPVSPICTFVSPAAQKAFQPPRSCGTKYETPIKKKELNSPQMTPFKKFNE",binding result,[3],binds
B1,binding result,[4],binds
same,binding result,[5],binds
same,binding result,[6],binds
167mer 3' tailed DNA (mixed) DNA 1: CTGCTTTATCAAGATAATTTTTCGACTCATCAGAAATATCCGTTTCCTATATTTATTCCTATTATGTTTTATTCATTTACTTATTCTTTATGTTCATTTTTTATATCCTTTACTTTATTTTCTCTGTTTATTCATTTACTTATTTTGTATTATCCTTATCTTATTTA DNA 2: CGGATATTTCTGATGAGTCGAAAAATTATCTTGATAAAGCAG,binding result,[7],binds
